Source: paper PMC2822728 (Neuron, 2010)

Molecular target: the molecule itself
Assay: SDS-resistant dimers on SDS-PAGE

B1: HA-SynDIG1 (full-length mouse SynDIG1, N-terminal HA tag) (natural protein, UniProt A2ANU3 1-258, looked up)
chain: MDGIIEQKSVLVHSKISDAGKRNGLINTRNFMAESRDGLVSVYPAPQYQSHRLVASAAPGSLEGGRSEPVQQLLDPNTLQQSVESHYRPNIILYSDGVLRSWGDGVATDCCETTFIEDRSPTKDSLEYPDGKFIDLSGDDIKIHTLSYDVEEEEELQELESDYSSDTESEDNFLMMPPRDHLGLSVFSMLCCFWPLGIAAFYLSHETNKAVAKGDFHQASTSSRRALFLAVLSITIGTGIYVGVAVALIAYLSKNNHL
- stoichiometry N: 2
